From article PMC10990931, “Cryo-EM structures of RAD51 assembled on nucleosomes containing a DSB site” (Nature, 2024)

Columns and labels:
[1] = target: nucleosome (human histones H2A, H2B, H3.1 and H4 with Widom 601 DNA), P04908;P06899;P68431;P62805; assay: electrophoretic mobility shift assay; conditions: read off a plot
[2] = target: the molecule itself; assay: cryo-EM micrographs; RAD51 alone, without nucleosome and DNA (WT 92.5 µM, K64A/K70A 73.3 µM, R235D 55.2 µM), 1 mM AMP-PNP; 37 °C 30 min, 34 mM HEPES-NaOH pH 7.5, 135 mM NaCl, 1 mM MgCl2; filament formation
[3] = ADP, RAD51 3.6 µM, parent: est. 100
[4] = AMP-PNP, RAD51 1.2 µM, parent: est. 33
[5] = AMP-PNP, RAD51 2.4 µM, parent: est. 92
[6] = AMP-PNP, RAD51 3.6 µM, parent: est. 99

Molecule	response [1, 3] [%]	response [1, 4] [%]	response [1, 5] [%]	response [1, 6] [%]	binding result [2]
human RAD51 (from UniProt Q06609) K64A	-1	26	86	98	–
human RAD51 (from UniProt Q06609) K64A; K70A	-5	3	20	59	–
human RAD51 (from UniProt Q06609) K70A	-9	19	78	93	–
RAD51(K64A/K70A) (natural protein, human, RAD51, human; source: E. coli, purified (Ni-NTA agarose, thrombin, spermidine precipitation, MonoQ)) MAMQMQLEANADTSVEEESFGPQPISRLEQCGINANDVKKLEEAGFHTVEAVAYAPKKELINIAGISEAAADKILAEAAKLVPMGFTTATEFHQRRSEIIQITTGSKELDKLLQGGIETGSITEMFGEFRTGKTQICHTLAVTCQLPIDRGGGEGKAMYIDTEGTFRPERLLAVAERYGLSGSDVLDNVAYARAFNTDHQTQLLYQASAMMVESRYALLIVDSATALYRTDYSGRGELSARQMHLARFLRMLLRLADEFGVAVVITNQVVAQVDGAAMFAADPKKPIGGNIIAHASTTRLYLRKGRGETRICKIYDSPCLPEAEAMFAINADGVGDAKD	–	–	–	–	binds
RAD51(R235D) (natural protein, human, RAD51, human; source: E. coli, purified (Ni-NTA agarose, thrombin, spermidine precipitation, MonoQ)) MAMQMQLEANADTSVEEESFGPQPISRLEQCGINANDVKKLEEAGFHTVEAVAYAPKKELINIKGISEAKADKILAEAAKLVPMGFTTATEFHQRRSEIIQITTGSKELDKLLQGGIETGSITEMFGEFRTGKTQICHTLAVTCQLPIDRGGGEGKAMYIDTEGTFRPERLLAVAERYGLSGSDVLDNVAYARAFNTDHQTQLLYQASAMMVESRYALLIVDSATALYRTDYSGDGELSARQMHLARFLRMLLRLADEFGVAVVITNQVVAQVDGAAMFAADPKKPIGGNIIAHASTTRLYLRKGRGETRICKIYDSPCLPEAEAMFAINADGVGDAKD	–	–	–	–	binds
